The series in a line: label from the status in PepcDB records.
For the sequence “MTTEPAQALSPLGVLPPAGPTCVHLPLNVTPQELARYAVGLANARGGTVMVGVDVVGQEHAERDAGELHPLMITHAIFELSGGRLTVNVQHHRVPGGARVLTVFVPQAPYVLAAPDGAVMAWDGAHLVPVLPGEGEPVADRDYTAVVPPDASLADLDPAEVARLRLLGRRIDAANLPDLDFLQELGLLVPSGGALRPTLAAILLAGTDAALRAHLPQAEVCYFHHQANDVEFQFREDLRRPIPSLLLRLSELIQARNRFTPVQVGLFRVEVWDHDESVYREALLNALTHRDYTLRDVVHVHHYPDRLEIMNPGGFPGGITPGNILRHQPKRRNPLLAGVLARLGLVEQAGVGVDKMFSLMLRHGKEPPEYVNYPDAVTLTLHGSAFDSDFVRFVARKQEELPQLSLDMLIVLSLLSREGEAPRAQLARALQLPEDRTPRLLRQMEDLALITRAGIGRGIAYHLAPDVAAALGQEKQRGLSALPGLPEPAERPTLLAPPAAVAPAPAPAAPRRVSEPAPTSHAGPSPSETRAIALALARERGRVRNADLREVCGLTNQQAWRALRSLVNAGLLRRLGSGTRDAYYELGEGAGRREEG”, the protein production result is “failed”.
To “MTDIFLEGGRALIGTELVETSLSVAGTDIARVDAARGRARLAIDARNLLVLPGIVDLHGDAFERQMMPRAGVDFPIDVALADSDRQAISNGITTVFHATTCSWEPGLRSADNARGLMEAIERQRPQFAADTRFHLRHETYNLDAEAEISRWLAEGRVDLFAFNDHMDGTVADMAKPRKRNRMVERTGLSSEDFDGLVDRVISRAADVPASVSRLAASARAADVRMLSHDDATPAMRREFRELGADIAEFPINEETARAAASHGDAIVYGAPNVVRGGSHTGWTRASDMIAKGLCSVLASDYYYPAQLLAAFRLAADGVLPLTEAWSLVSAEPARAAGLADRGILAEGRRADILLVDDTVPLRPRLVAVISGGKLVHLTDATRLLSAAAAPREAVVAA” belongs “failed”; to “MRKGQETRERVVAQAAALFNVSGYAGTAISDIMAATGLEKGGIYRHFESKEQLALAAFDYAAEKVRERFAVGLAGHKHTVDTIIAFLDVFRSYAERPPLVGGCPILNTAIESDDTNPMLRERVRAVIDEWRETIRTLVQTGIARGEIRPEVDADRLALLIIATMEGAVMLARILETATPLEHAYTHLATYITQQVRLA”, “not failed”.
In the case of “MSRNHLPFSAGELEALPLFRFVPLECIEGILEHSCVVSLERGERFEPAGPLGRTIHLILDGRLALYYDVRERDDTPLHLERGDIVGQSLVSGEPEVPCTLVAAEETRLMILEEDLIWSLAQASHAAACNLLGILLRGRGGSPQESFSGTVRDYALRNQAVVDPLTGFQSRRWLEGILSRQVDRFTANGRPLSLVMIDIDGFRAFNERHGRAGGDRALHDVAKTLRNSLRPGELVARYGGDTFAVLLPETEPSTAWMIADRLRQRLMRTVIDMGDGAMLPPLSISAGVAEATPGIDGPTIADNALAALDRAKAAGGNTVSR”, the protein production entry is given as “failed”.
In the case of “MKTFKKGVILDAKSVGLKALEVLKEVADFDFYEVTPPSQIVERSIEAEIMVLNKVVITQEVLSQLPKLKLICITATGTDNVDIKSAKALGIEVKNVSAYSTESVAQHTLACALSLLGRINDYDRYCKSGEYSQSDLFTHISDIKMGLIKGSQWGVIGLGTIGKRVAKLAQAFGAKVVYYSPKDKKEEYERLSLKDLLATSDIISIHAPLNESTRDLIALKELQSLKDGAILINVGRGGIVNEKDLAEILETKDLYYASDVFVKEPFEKDHAFLNPKIQNKLLLTPHIAWAYSDSLKTLVEKTKENIQDFLASQK”, the protein production result is reported as “failed”.
With “MRILLVGAGGFVGRHLLPALLAAGHELLLTARRPPVDAPAGVRWLALDLERLAERPDSFAWPAGVDLLINAAGTMSLDEASMARVQDSGARTLFDLAAAHGAKVLQISALGAGAHPDVAFLASKAAADRHLLELGIPALVLRPSLLLGPGGASSAWLERLSPLPLIPLLDNRARLQPLHVEDLVGAVLALLRCWPERAQVIPLVGPQALTQGELLDELRRAQGWPRGRYVVPPAALLDALGGLGRRAGWRTLSPSMLKLVRHDNLADPALLDEACGYRCAPLASRLLGWPQAARSLAALMRPLMLAALVLIWLGTLVACLGPGYGWGLRILGEAGIHGWPASLAVIAGALLDGALGVGLLLRRWRRRALLAQFWLMLGYSLAISLILPHYWYDPYMAVGKNIVLMVATLWLLGDEPRTREARG” the entry was “failed”; with “MEQKILSSEPRRSFSNEFKLQMVKLASQPGAXVARIAREHDINDNLLFKWLRLWQNERRISRRLPVTTSSGAGVELLPVEITPDEQKEPMAALTPLLSTPSQSTVSASSCKVEFRHGNMTLENPSPELLTVLIRELTGRGR”, “failed”.
To “MHRVHGTLHASFTIECRNMFKRFFLALIGVGILLSESTQASESPPYSMVLLTENFPPFNMAVDGKNFAQENNIDGIAAEVVREMFKRANIGYSMTLRFPWDRVYKLALDKPGYGVFSTTRLPEREKLFKWIGPLGSYDWIMLARGDSPITLASLEQAKDYRIGAYKGDAIGERLNAMGLNPILMLRDRDNVKKLANGQIDLWAVGDPVGRYLAKLEGVSGFKTALRFNSAELYLAVNKSTPDEIVNRLQAALDQMRTEGWVDAVKARYQLEHHHHHH” belongs “not failed”; to “MPLHRTPRTGPEPRTLALLAGAGLAAGAAAWAVSRSRENPVVFRPNDDAPDRVARHPEATMPTGRTVTINRPRSELFAFWRDFSNLPQFMESVEHVTVVGDVSRWTLAAPFGRKITLETRIVEEVPDRLIAWRSTDGSDVRAEGAVTFRDAPAGRGTEVEAVVAYVPAGGEAGRLIARLFRLAPAMQGRRELRRFKMLMEAGEIATSRNRKD”, “failed”; to “RESVEKQKKLEAILVSMDSGVIAVDRKHKIIMINPYAEKIFGIDKNIIGQSLMDCIRNYEFEDIFNKRAEGYAEIKTSWPKERNLRIKTADIINGYECIGTVAVVQDIT”, “failed”.
For “MNTGMGLIWIAGASGLLAFLTSLLYFFRQDRKFLALSEKLELIAGVGLVFAIFLLAFYLLGVDTQYSYVFQHSSTDLAWHYRFSALWAGQEGSFLIWTGFIFVMLAITRFTGTGKVLRETEIFSIMRSVSLFVASVFLLLLALKNPFSMYYYTGTGVPDVTNWNLFAEPFVVSYGQGMNPLLRNPWMAIHPPLLFLGYAAFTLPFSAAIGGLVLKDSRWSELATGWMRVSWLFLTLGIGFGAFWAYEVLGWGAWYWTWDPVETSSLIPWLTATAYLHAKLRARQGEYGFLLPMLALVSFILVIFSTFVTRSGLWVSVHSWQDFTMEGMIIALFLVVLIGSSAVLLVRKYFSEE”, the protein production entry was “failed”.
With “MVSANTKPLSEFKTGEFVQIEKIQLEGTMKRRLLDLGFIPGATIKVLQRSPLGDPVAYQVSNTTIALRKEESSLIFGVLIGDDFRLEHHHHHH”, the protein production entry was “not failed”.
Turning to “MRTLGIIGFGGFGQFMVKHLQPYISVTVHDLTDLSHIAAEHKVEWGTLQETASKDIVILAVPVQFLESLLLEIKDYLKAEALIVDVSSVKVKPIELMLKHLPLTVDILGTHPLFGPQSGKNGIKGLNMVVCPVRSKKMRAITHFLRNVIQLNVLERTPETHDKQMAYVQALTHFIGRSINEMDIPDVEQKTPAYQYLLDIKRNLGGDSMDLFLTIELENPYAKKVREEFMGALKSLNDRLEHIKR”, the protein production result is reported as “failed”.
“RSMEDVRLHRKEKGDAYSFNWSLKIEADFQLPFDPTHTSMEGLNLNLDQEPQVLAANLRKAFSGIVAGNVKAEGIREIECKGPFSIHGDPVLMKKLDKLLQDFVEQHRMKLPGGSDYEPCYRIAHP”: the protein production result is recorded as “failed”.
Consider “TLDAGLQRQLEDLALNWKSRLPPRSSLAMVVVDHTDMKVRGWVGSADITDDSRFGHIDMVSAVRSPGSVLKPFIYAMAMDEGLIHPASLLQDVPRRFSDYRPGNFDSGFHGPVSASEALVRSLNLPAVQVLEAYGPKRFAANLRNAGLPLTLPAGAEPNLSLILGGAGARLEDIVAAYSAFARHGKAARLRLKPSDPLTERALMSPGAAWIVRRILAGEAQPVPDASLPQAVPLAWKTGTSYGYRDAWAVGLNARYLIGIWTGRPDGTPVVGQFGFASAVPLLNQVNNLLLARPAMSRGGL”, for which the protein production result is “failed”.
On to “MTAAQFAALSPLVVLAIAAVAAMMLVPLARLQIVQASAAAGLAIAAALVLLRIGAPAAPMGALFTDDGPARFGIVFACLVSLGALVFLRTGHPAKEAPSLLVLVAIGAATLAGAGHAATLFLGIEILSLSLIALFAFRLTRQGLEAAYKFLVMSGLASSALLLGIALIFAETGALDFAGWGGRGALTAFGTALLLAGLAFKFSLVPFHMWTPDAFEAAPASAATLAGVVSKSAVAIVILRLALTAHLPEPVWSQGLAALGGASVLIGNLLALRQPQLPRMLGYSTIAHSGYIALIIASGTPHAGEAVLFYLAIYAPAMLGALCVSAALGRAPTLPDLHGLMKRRPLEAIALSLSLLSLAGLPAAGGFIAKLFLLRVLIDGSLWVLVGIVVAGSSLGFFYYAKFFTAPFVGHTHDESEPLPQLDRGLLIVCIALIVIFGVAPAGLMNVVAATMAP”, for which the protein production result is “failed”.
As for “GGLRLIPLDQVRYLQADEKYVVICHEQGEDLIEESLKSLEKEFSDRFVRIHRNCLIARAELTELRRCSDGQVQAVLRNVVTPLAVSRRCVPLLCDQLR”, the protein production entry is reported as “not failed”.
Take “MASDREEFNLCGPTHLTTVDWGNEDHQRCVAACLVQGIYIVEQDRQLKREGTEALASPWWESFNFKLIRHLKDDADFSIFGGIFEYKSLQPDVVDSGVPRYVIAFRGTLTKADSITRDIELDIHIIRNGLHRTSRFEIAMQAVRSMADSVGASSFWLTGHSLGAAMALLAGKTMGKSGVYIKSLLFNPPYVSPPIERIANERVRHGIRFAGSLITAGLALSRTLKQTQQPQQQQLQLQNLTEDPLEALSSWLPNIHVNPGDHLCSEYIGFFEHRGNMEQIGYGAGIVERMAMQHSLGGLLMDAMGVSNAVEVEEPVHVIPSANLIVNKTISEDYKDAHGIHQWWRDDQDLVSHIYMYK”: the protein production result was “failed”.
For “MSYVPPHKRLENVALRASSVPPSLLKKHNKNVGSTNTKIIYANGYISRWFLVGSDPEDSNFQLVPGSSEWRKDAEEKSLVILAKSDLGKLENPWLWVTEKVEDDIIMGFDRAKKTLLGYGGSEDVKLRLIARFGTLRDGPLTKSTLEKLKKMFRTNVPKSYVENVGYRAVHKMGFCVEETKELYHVKVSDNTRPDVTISCKCMAELNALRHLNLDVSCLDQDLDMRLMVDSKRTLTNLSENEITNLKELTDSAVVDPTVKGGLKWPLGKSSCADRYIVCGVWHTVTTTYINQTMRLQIREADRYDFRTGVGGTSSEVNFKLKALSTILLKEEDVERKCVSDMLKDCLKAVWEYFLKEV”, the protein production result is given as “failed”.
Take “MIDLDPRLAADTHPVTQWPLSQVRLMDDVRFPWLVLIPDRPGLVEIFDLPAEDQDKMWREVAHAAATLKTLSGAHKINIGALGNQVSQLHIHIIARRPDDGAWPGPVWGVGERQRYDQAELAEFLSGLRAQLIAPGQGIVEEGQTR”: the protein production result is “failed”.
For the sequence “MSLAAARGGVGAGPDVRPVHGVHARMAEKMTLSHKEIPTAKASVEVICAELLRLRDRFVSAAPEITPFALTLRLLVIALKHNVILNSTWVDSGEGPQVHVHRGVHLGFGAATERGLLVPVVTDAQDKNTRELASRVAELITGAREGTLTPAELRGSTFTVSNFGALGVDDGVPVINHPEAAILGLGAIKPRPVVVGGEVVARPTMTLTCVFDHRVVDGAQVAQFMCELRDLIESPETALLDLEGHHHHHH”, the protein production result was “not failed”.
“MLTHHKNKLKTIEWTSYVWLAYLPYTIAAYIPVKSWHDWLWLLLVGGFLVLYILVVEKPHWRAVTMPAELVVTGLFAVFAANNFMIIFPGWQVSFLLGRRPKREFYGFALGYYAFLIGGCIRDYLQYPGVFGWHNGDVMGLVFPLLSPILAYTFSWSVERQRQLNQTNRRLKTIVERNERERIARDLHDTLGQSFSMITLKTELAKKLLVKAPEKVAPELDEIEQTSRQNLQLVREIVNNLHEQSLTEVLLAQTRNLAAVGVWTTTTGETQATKWPTTVQSCFAAVLVEAMTNVMRHAHAHEVRIDFVETAKIYQIKLKDDGKGGTLIRQGANGIAGMRTRLQAKQGTFAITSSRRGTQLILTLPKE”: the protein production result is reported as “failed”.
